Results published in patent US20240425830, “ENGINEERED CAS12I NUCLEASE, EFFECTOR PROTEIN AND USE THEREOF” (Institute of Zoology, Chinese Academy of Sciences, published 2024).

Legend:
Cas12i2 E563R = biological target: T1, Cas12i2 E563R (E563R); experiment: cell_activity; HEK293T
T1 chain: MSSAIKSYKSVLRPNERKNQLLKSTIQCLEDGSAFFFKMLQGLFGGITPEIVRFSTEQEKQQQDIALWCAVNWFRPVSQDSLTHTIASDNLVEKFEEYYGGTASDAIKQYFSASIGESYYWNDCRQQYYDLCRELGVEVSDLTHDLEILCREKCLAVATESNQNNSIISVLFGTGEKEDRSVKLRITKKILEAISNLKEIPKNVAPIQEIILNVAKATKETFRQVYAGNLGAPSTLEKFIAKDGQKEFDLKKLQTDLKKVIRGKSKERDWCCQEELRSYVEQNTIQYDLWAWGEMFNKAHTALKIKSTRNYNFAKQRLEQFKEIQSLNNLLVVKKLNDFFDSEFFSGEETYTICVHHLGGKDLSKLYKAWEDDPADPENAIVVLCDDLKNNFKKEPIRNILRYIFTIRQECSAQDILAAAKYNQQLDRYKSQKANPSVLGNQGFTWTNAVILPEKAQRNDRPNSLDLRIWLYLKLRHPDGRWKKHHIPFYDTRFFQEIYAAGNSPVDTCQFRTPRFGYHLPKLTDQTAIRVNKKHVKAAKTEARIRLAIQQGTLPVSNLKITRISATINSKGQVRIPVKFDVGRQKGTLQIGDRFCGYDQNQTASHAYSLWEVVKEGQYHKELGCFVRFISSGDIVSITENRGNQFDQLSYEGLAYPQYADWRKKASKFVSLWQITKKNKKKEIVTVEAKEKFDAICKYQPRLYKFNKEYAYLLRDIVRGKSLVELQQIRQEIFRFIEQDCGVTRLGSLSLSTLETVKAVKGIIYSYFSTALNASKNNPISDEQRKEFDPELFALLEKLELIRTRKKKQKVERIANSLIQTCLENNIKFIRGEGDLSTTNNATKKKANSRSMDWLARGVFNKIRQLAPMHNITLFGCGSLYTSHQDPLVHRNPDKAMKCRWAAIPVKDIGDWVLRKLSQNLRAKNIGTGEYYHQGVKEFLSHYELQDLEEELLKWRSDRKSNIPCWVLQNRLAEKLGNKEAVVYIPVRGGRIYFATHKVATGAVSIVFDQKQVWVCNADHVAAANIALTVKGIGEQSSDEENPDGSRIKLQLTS
Procedure: (§1) HEK293T cells were cultured in DMEM (Gibco) comprising 1% penicillin-streptomycin (Gibco) and 10% fetal calf serum (Gibco). Cells were seeded in 24-well cell culture dishes (Corning) for 16 hours until cell density reached 70%. By using Lipofectamine 3000 (Invitrogen), 600 ng of plasmid encoding Cas12i2 protein and 300 ng of plasmid encoding crRNA were transfected into each 24-well cell culture dish. After approximately 68 hours of transfection, HEK293T cells to be subjected to fluorescence-activated cell sorting (FACS) were digested with trypsin-EDTA (0.05%) (Gibco). Cell sorting was performed using MoFlo XDP (Beckman Coulter) with GFP channel.
(§2) FACS-sorted GFP-positive HEK293T cells were lysed with buffer L and incubated at 55° C. for 3 h and then at 95° C. for 10 min. PCR amplification of dsDNA fragments comprising target sites in different genomic sites was performed using corresponding primers. For targeted deep sequencing, cell lysate was directly used as a template to directly amplify the target site through barcoded PCR. PCR products were purified and pooled into several libraries for high-throughput sequencing. The frequency (%) of indels was analyzed using CRISPResso2 software by calculating the ratio of reads comprising indels. In this application, the index of indel frequency (%) was uniformly used to compare and analyze gene editing efficiency. Reads with less than 0.05% of complete reads are discarded.

Cas12i2 wild-type = biological target: T2, Cas12i2 wild-type; experiment: cell_activity; HEK293T
T2 chain: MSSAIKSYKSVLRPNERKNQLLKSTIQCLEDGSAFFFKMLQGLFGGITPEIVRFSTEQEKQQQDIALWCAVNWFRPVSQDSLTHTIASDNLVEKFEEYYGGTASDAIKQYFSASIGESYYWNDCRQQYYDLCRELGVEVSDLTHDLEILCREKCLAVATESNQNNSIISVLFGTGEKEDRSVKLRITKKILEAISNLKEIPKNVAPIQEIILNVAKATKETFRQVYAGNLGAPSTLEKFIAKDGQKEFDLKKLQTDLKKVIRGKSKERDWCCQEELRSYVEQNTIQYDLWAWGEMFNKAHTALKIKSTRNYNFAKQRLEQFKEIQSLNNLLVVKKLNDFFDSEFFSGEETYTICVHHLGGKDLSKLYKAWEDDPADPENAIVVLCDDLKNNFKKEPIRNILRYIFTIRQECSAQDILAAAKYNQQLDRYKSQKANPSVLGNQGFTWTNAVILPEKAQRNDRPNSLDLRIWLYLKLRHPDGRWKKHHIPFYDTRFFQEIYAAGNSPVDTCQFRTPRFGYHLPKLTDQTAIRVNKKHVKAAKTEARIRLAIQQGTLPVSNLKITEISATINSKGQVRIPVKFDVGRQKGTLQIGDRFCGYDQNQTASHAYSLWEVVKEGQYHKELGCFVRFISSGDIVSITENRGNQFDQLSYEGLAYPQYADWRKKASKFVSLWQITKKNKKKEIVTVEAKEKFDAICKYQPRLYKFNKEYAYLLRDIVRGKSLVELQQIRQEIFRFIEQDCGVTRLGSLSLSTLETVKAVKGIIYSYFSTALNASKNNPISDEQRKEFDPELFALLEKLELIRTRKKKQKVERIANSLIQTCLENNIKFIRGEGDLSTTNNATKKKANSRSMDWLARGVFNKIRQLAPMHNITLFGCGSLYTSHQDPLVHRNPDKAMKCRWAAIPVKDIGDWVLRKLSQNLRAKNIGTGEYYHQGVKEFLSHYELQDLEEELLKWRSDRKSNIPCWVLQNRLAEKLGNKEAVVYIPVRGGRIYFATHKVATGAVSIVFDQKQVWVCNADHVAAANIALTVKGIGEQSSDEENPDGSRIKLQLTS
Procedure: as §1, §2

Binder	activity (Cas12i2 E563R) [% indel]	activity (Cas12i2 wild-type) [% indel]
crRNA CCR5-3 ; CCR5-3 target (ssRNA ; dsDNA) RNA: AGAAAUCCGUCUUUCAUUGACGGAGGCCAAAGAAUUCCUGGAA DNA 1: AGGCCAAAGAATTCCTGGAA DNA 2: TTCCAGGAATTCTTTGGCCT	55.5	10.4
crRNA RNF2-7 ; RNF2-7 target (ssRNA ; dsDNA) RNA: AGAAAUCCGUCUUUCAUUGACGGUUCAACAUAUCCAAACAAAU DNA 1: TTCAACATATCCAAACAAAT DNA 2: ATTTGTTTGGATATGTTGAA	68.3	11.7
